Measured values from patent publication US20200199241A1 (Chugai, published 2020).
Changes are numbered by the printed parent chain. Names may count otherwise.

T1: human FcγRIIa type H (human, UniProt P12318 36-217)
T1 construct: also called FcγRIIaH; FcγRIIa(H)
T1 sequence: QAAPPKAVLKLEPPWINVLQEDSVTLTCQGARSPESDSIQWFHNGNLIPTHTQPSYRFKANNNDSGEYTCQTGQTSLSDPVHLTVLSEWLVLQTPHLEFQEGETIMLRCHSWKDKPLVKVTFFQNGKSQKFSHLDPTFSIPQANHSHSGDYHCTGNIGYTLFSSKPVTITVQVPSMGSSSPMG

T2: human FcγRIIa type R (human, UniProt P12318 36-217)
T2 construct: also called FcγRIIaR; FcγRIIa(R)
T2 chain: T1 sequence with H133R

T3: human FcγRIIb (human, UniProt P31994 43-217, limits assumed)
T3 construct: also called FcγIIB
T3 sequence: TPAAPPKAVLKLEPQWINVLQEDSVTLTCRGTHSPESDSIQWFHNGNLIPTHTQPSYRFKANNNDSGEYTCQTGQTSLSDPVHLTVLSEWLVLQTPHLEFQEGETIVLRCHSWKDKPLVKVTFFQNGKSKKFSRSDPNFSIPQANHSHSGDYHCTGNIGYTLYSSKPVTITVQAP

T4: FcγRIIb (human, UniProt P31994 43-217, limits assumed)
T4 construct: also called FcgRIIb; FcγIIB
T4 sequence: T3 sequence

T5: FcγRIIa type H (human, UniProt P12318 36-217)
T5 construct: also called FcγRIIaH; FcγRIIH
T5 sequence: T1 sequence

T6: FcγRIIa type R (human, UniProt P12318 36-217)
T6 construct: also called FcγRIIaR; FcgRIIaR
T6 chain: T1 sequence with H133R

B1: IL6R-BF648/IL6R-L (antibody, human IgG1)
heavy: not shown
light: DIQMTQSPSSLSASVGDRVTITCRASQDISSYLNWYQQKPGKAPKLLIYYTSRLHSGVPSRFSGSGSGTDFTFTISSLQPEDIATYYCQQGNTLPYTFGQGTKVEIK
notes: IL6R-B3 with P238D; also called P238D
B2: IL6R-B3/IL6R-L (antibody, human IgG1)
heavy: not shown
light: B1 light
notes: IL6R-G1d with K439E (EU numbering)
B3: IL6R-BP118/IL6R-L (antibody, human IgG1)
heavy: QVQLQESGPGLVKPSETLSLTCAVSGHSISHDHAWSWVRQPPGEGLEWIGFISYSGITNYNPSLQGRVTISRDNSKNTLYLQMNSLRAEDTAVYYCARSLARTTAMDYWGEGTLVTVSSASTKGPSVFPLAPSSKSTSGGTAALGCLVKDYFPEPVTVSWNSGALTSGVHTFPAVLQSSGLYSLSSVVTVPSSSLGTQTYICNVNHKPSNTKVDKKVEPKSCDKTHTCPPCPAPELLGGDSVFLFPPKPKDTLMISRTPEVTCVVVDVSHEDPEVKFNWYVDGVEVHNAKTKPREEQYNSTYRVVSVLTVLHQDWLNGKEYKCKVSNSALPAPIEKTISKAKGQPREPQVYTLPPSRDELTKNQVSLTCLVKGFYPSDIAVEWESNGQPENNYKTTPPVLDSDGSFFLYSKLTVDKSRWQQGNVFSCSVMHEALHNHYTQESLSLSP
light: B1 light
notes: Alteration introduced into IL6R-B3; also called P238D/K326S
B4: IL6R-BP121/IL6R-L (antibody, human IgG1)
heavy: B3 heavy with S328Q
light: B1 light
notes: Alteration introduced into IL6R-B3; also called P238D/K326Q
B5: IL6R-BP119/IL6R-L (antibody, human IgG1)
heavy: B3 heavy with S328M
light: B1 light
notes: Alteration introduced into IL6R-B3; also called P238D/K326M
B6: IL6R-BP103/IL6R-L (antibody, human IgG1)
heavy: B3 heavy with S269V, S328K
light: B1 light
notes: Alteration introduced into IL6R-B3; also called P238D/S267V
B7: IL6R-BP100/IL6R-L (antibody, human IgG1)
heavy: B3 heavy with S269A, S328K
light: B1 light
notes: Alteration introduced into IL6R-B3; also called P238D/S267A
B8: IL6R-2B171/IL6R-L (antibody, human IgG1)
heavy: B3 heavy with V325L, S328K
light: B1 light
notes: Alteration introduced into IL6R-B3; also called P238D/V323L
B9: IL6R-BP078/IL6R-L (antibody, human IgG1)
heavy: B3 heavy with S328K, A332M
light: B1 light
notes: Alteration introduced into IL6R-B3; also called P238D/A330M
B10: IL6R-2B128/IL6R-L (antibody, human IgG1)
heavy: B3 heavy with Y298D, S328K
light: B1 light
notes: Alteration introduced into IL6R-B3; also called P238D/Y296D
B11: IL6R-BP116/IL6R-L (antibody, human IgG1)
heavy: B3 heavy with S328T
light: B1 light
notes: Alteration introduced into IL6R-B3; also called P238D/K326T
B12: IL6R-2B172/IL6R-L (antibody, human IgG1)
heavy: B3 heavy with V325M, S328K
light: B1 light
notes: Alteration introduced into IL6R-B3; also called P238D/V323M
B13: IL6R-2B002/IL6R-L (antibody, human IgG1)
heavy: B3 heavy with E235D, S328K
light: B1 light
notes: Alteration introduced into IL6R-B3; also called P238D/E233D
B14: IL6R-BP110/IL6R-L (antibody, human IgG1)
heavy: B3 heavy with H270N, S328K
light: B1 light
notes: Alteration introduced into IL6R-B3; also called P238D/H268N
B15: IL6R-2B169/IL6R-L (antibody, human IgG1)
heavy: B3 heavy with V325I, S328K
light: B1 light
notes: Alteration introduced into IL6R-B3; also called P238D/V323I; 1L6R-2B169/IL6R-L
B16: IL6R-BP912/IL6R-L (antibody, human IgG1)
heavy: B3 heavy with S328K, A332R
light: B1 light
notes: Alteration introduced into IL6R-B3; also called P238D/A330R
B17: IL6R-BP102/IL6R-L (antibody, human IgG1)
heavy: B3 heavy with S269Q, S328K
light: B1 light
notes: Alteration introduced into IL6R-B3; also called P238D/S267Q
B18: IL6R-BP107/IL6R-L (antibody, human IgG1)
heavy: B3 heavy with H270E, S328K
light: B1 light
notes: Alteration introduced into IL6R-B3; also called P238D/H268E
B19: IL6R-BP106/IL6R-L (antibody, human IgG1)
heavy: B3 heavy with H270D, S328K
light: B1 light
notes: IgG1; Fc variant of IL6R-B3; copies: 2 + 2
B20: IL6R-BP078/IL6R-L (antibody, human IgG1)
heavy: B3 heavy with S328K, A332M
light: B1 light
notes: as for B19
B21: IL6R-BP107/IL6R-L (antibody, human IgG1)
heavy: B3 heavy with H270E, S328K
light: B1 light
notes: as for B19

What follows are binders tested against T1, human FcγRIIa type H (assay: SPR (Biacore), binding amount relative to IL6R-BF648/IL6R-L = 100).

relative binding | Binder
100 | B1
1600 | B2
128 | B3
135 | B4
133 | B5
69 | B6
128 | B7
115 | B8
89 | B9
37 | B10
110 | B11
179 | B12
147 | B13
127 | B14
83 | B15
93 | B16
66 | B17

What follows are binders tested against T7, human FcγRIa (human, UniProt P12314 16-292, limits assumed) in the same assay as above.
T7 construct: also called CD64
T7 sequence (P12314 16-292 limits assumed): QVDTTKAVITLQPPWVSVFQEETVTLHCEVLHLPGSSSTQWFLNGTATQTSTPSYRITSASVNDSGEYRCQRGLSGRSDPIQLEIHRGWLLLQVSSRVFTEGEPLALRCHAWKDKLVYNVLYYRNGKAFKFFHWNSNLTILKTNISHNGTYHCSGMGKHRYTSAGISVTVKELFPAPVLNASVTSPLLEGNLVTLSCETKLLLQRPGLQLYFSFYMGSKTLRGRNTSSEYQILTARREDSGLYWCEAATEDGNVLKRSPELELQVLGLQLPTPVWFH

relative binding | Binder
100 | B1
145 | B2
101 | B3
118 | B4
117 | B5
56 | B6
121 | B7
116 | B8
95 | B10
123 | B18
110 | B11
140 | B12
118 | B13
105 | B14
73 | B15
60 | B16
104 | B17

These binders were tested against T8, human FcγRIIIa type V (human, UniProt P08637 17-208, limits assumed) in the same assay as above.
T8 construct: also called FcγRIIIaV; FcγRIIIa(V)
T8 sequence (P08637 other isoform, or with tags, fused parts or gaps limits assumed): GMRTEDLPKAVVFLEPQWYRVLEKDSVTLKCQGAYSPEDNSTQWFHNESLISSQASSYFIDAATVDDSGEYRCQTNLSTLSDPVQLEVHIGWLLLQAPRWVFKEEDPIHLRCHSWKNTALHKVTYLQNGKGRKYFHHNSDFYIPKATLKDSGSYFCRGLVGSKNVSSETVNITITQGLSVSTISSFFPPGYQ

relative binding | Binder
100 | B1
3260 | B2
144 | B3
157 | B4
145 | B5
77 | B6
138 | B7
122 | B8
91 | B9
96 | B10
129 | B18
114 | B11
144 | B12
147 | B13
127 | B14
94 | B15
97 | B16
86 | B17

Biological target: T2, human FcγRIIa type R
Assay: as above

relative binding | Binder
100 | B1
625 | B2
132 | B3
155 | B4
181 | B5
163 | B6
197 | B7
117 | B8
101 | B9
87 | B10
147 | B18
126 | B11
244 | B12
103 | B13
128 | B14
81 | B16
165 | B17

These binders were tested against T3, human FcγRIIb in the same assay as above.

relative binding | Binder
100 | B1
58 | B2
104 | B3
113 | B4
110 | B5
107 | B6
110 | B7
113 | B8
103 | B10
118 | B18
108 | B11
132 | B12
101 | B14
104 | B15
103 | B16
106 | B17

What follows are binders tested against T9, FcγRIa (human, UniProt P12314 16-292, limits assumed) (assay: SPR (Biacore), FcγR over captured antibody).
T9 construct: also called FcgRIa; CD64
T9 sequence (P12314 16-292 limits assumed): as the sequence (P12314 16-292 limits assumed) above

Kd [µM] | Binder
0.004 | B19
0.0082 | B20
0.0015 | B21

The binders below were run against T4, FcγRIIb (assay: SPR (Biacore), FcγR over captured antibody).

Kd [µM] | Binder
0.93 | B19
1.1 | B20
0.93 | B21

Each binder was assayed against T10, FcγRIIIa type V (human, UniProt P08637 17-208, limits assumed) (assay: SPR (Biacore), FcγR over captured antibody).
T10 construct: also called FcγRIIIaV; FcgRIIIaV
T10 sequence (P08637 other isoform, or with tags, fused parts or gaps limits assumed): as the sequence (P08637 other isoform, or with tags, fused parts or gaps limits assumed) above

Kd [µM] | Binder
55 | B19
78 | B20
63 | B21

The binders below were run against T5, FcγRIIa type H (assay: SPR (Biacore), FcγR over captured antibody).

Kd [µM] | Binder
36 | B19
45 | B20
52 | B21

Biological target: T6, FcγRIIa type R
Assay: SPR (Biacore), FcγR over captured antibody

Kd [µM] | Binder
11 | B19
15 | B20
12 | B21
